In publication PMC10403728, “Interactions between Fkh1 monomers stabilize its binding to DNA replication origins” (The Journal of Biological Chemistry, 2023):

Target: the molecule itself
Test: SEC + other: glycerol gradient sedimentation; purified FLAG-Fkh1; Superdex 200 5/150 GL in 150N buffer (25 mM Hepes-NaOH pH 7.6, 150 mM NaCl, 10% glycerol, 1 mM β-mercaptoethanol); main-peak and shoulder fractions on 10 to 15% glycerol gradients, 180,000g, 18 h, 4 °C; approximate molecular weight from Stokes radius and S value; monomer and dimer

B1: full-length Fkh1 (natural protein, Saccharomyces cerevisiae, UniProt P40466 1-484, looked up)
chain: MSVTSREQKFSGKYSSYTAQDRQGLVNAVTCVLSSSSDPVAVSSDYSNSLSIAREVNAYAKIAGCDWTYYVQKLEVTIGRNTDSLNLNAVPGTVVKKNIDIDLGPAKIVSRKHAAIRFNLESGSWELQIFGRNGAKVNFRRIPTGPDSPPTVLQSGCIIDIGGVQMIFILPEQETIISDYCLNHLMPKLLSTYGTNGNNNPLLRNIIEGSTYLREQRLQEEARLQQLDHLHTPLSSSSDVNPIGDPHGDTIMMEEDEEDENYTRGGIRPNTYTSSSNNAVTNGNVPHIENPSDLSLDENRYIKPPQSYASMITQAILSTPEGSISLADIYKFISDNYAFYRFSQMAWQNSVRHNLSLNKAFEKVPKRAGQQGKGMNWKISDEVRRDFLNKWNAGKLSKIRRGASVTRQLQLHMSKFGEIPAPESSSIDPRGIKAQKVKKSLQATSSILGESAPQLQRTQLTGQISTTTSMDVTTNANVNNSSLS
notes: Fkh1, Forkhead family transcription factor of Saccharomyces cerevisiae, full length (the truncation Δ410–484 tells a length of 484 residues); also called wild-type Fkh1; FLAG-tagged full-length Fkh1; source: S. cerevisiae (W303 derivative), GAL1-10 promoter, galactose-induced; also in whole-cell extract of a strain co-expressing two differently tagged copies; not shown: FLAG, N-terminal, kept
  stoichiometry N: 2
